Patent US6753413

Columns and labels:
[1] = target: reconstituted Nclk (GST-p25/GST-Cdk5 complex) [GST: P08515]; assay: cell-based or functional assay
[2] = system: T1, GST-C48 (SEQ. ID NO 4)
T1 sequence: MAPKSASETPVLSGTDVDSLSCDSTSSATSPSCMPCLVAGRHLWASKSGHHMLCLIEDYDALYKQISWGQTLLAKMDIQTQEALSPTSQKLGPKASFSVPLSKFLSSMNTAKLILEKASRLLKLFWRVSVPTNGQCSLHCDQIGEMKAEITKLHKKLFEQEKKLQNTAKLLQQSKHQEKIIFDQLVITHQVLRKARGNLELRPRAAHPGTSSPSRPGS

[3] = system: T2, GST-C53 (SEQ ID NO 6)
T2 sequence: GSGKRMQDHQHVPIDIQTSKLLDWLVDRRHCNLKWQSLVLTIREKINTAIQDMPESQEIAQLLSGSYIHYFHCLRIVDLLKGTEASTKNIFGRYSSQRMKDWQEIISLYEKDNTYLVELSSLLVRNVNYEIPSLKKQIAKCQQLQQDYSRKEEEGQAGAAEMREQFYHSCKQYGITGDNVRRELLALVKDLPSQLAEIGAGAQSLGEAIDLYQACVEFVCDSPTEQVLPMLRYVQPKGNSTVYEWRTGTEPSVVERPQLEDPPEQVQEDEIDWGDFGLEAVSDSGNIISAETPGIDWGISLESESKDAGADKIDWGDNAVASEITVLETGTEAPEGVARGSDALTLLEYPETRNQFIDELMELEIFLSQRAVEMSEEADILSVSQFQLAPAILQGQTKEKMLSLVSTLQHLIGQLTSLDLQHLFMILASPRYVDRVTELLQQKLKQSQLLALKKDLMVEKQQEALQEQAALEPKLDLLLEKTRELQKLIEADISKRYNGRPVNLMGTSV

| inhibition of Cdk5 kinase activity [1] | Substance | phosphorylation by reconstituted Nclk (autoradiograph, Mg[γ-32P]ATP) [2] | phosphorylation by reconstituted Nclk (autoradiograph, Mg[γ-32P]ATP) [3] |
| --- | --- | --- | --- |
| < 20% | GST-C48 (SEQ. ID NO 4) (from UniProt Q9JLH5 1686-1903) | – | – |
| < 20% | GST-C53 (SEQ ID NO 6) (from UniProt Q9JLH7 1-504) | – | – |
| – | reconstituted Nclk (GST-p25/GST-Cdk5 complex) | the SEQ ID NO 4 (C48) and SEQ ID NO 6 (C53) proteins, but not the SEQ ID NO 2 (C42) protein, were phosphorylated by Cdk5 kinase | the SEQ ID NO 4 (C48) and SEQ ID NO 6 (C53) proteins, but not the SEQ ID NO 2 (C42) protein, were phosphorylated by Cdk5 kinase |
